Laboratory results: patent US20200255846A1 (INSTITUTE OF GENETICS AND DEVELOPMENTAL BIOLOGY CHINESE …, published 2020)

Target: nYFP-OsCaM1-1 (rice calmodulin OsCaM1-1 fused with the N-terminal fragment of YFP) (rice, UniProt Q0JNS6 1-149)
Assay: BiFC, nYFP-OsCaM1-1 and cYFP-GSE5 coexpressed in N. benthamiana leaves
From the text: The coding sequence of GSE5 were amplified by specific primers ycGSE5-F/R, fused with the C-terminal fragment of YFP (cYFP), and then subcloned into the pGWB414 vector (Invitrogen) using in-fusion enzyme (Genebank Biosciences Inc, China). The N-terminal fragment of YFP (nYFP) was amplified from pSY736 using the primers YN-736-F and YN-736-R, fused with the OsCaM1-1 gene, and then subcloned into the pGWB414 vector (Invitrogen) using in-fusion enzyme (Genebank Biosciences Inc, China). nYFP-OsCaM1-1 and cYFP-GSE5 constructs were transformed into Agrobacterium strains GV3101. Transient expression of nYFP-OsCaM1-1 and cYFP-GSE5 in Nicotiana benthamiana leaves and fluorescence observation were conducted as described previously (Wang et al., 2016).

binding result: binds
B1: cYFP-GSE5 (GSE5, GRAIN SIZE ON CHROMOSOME 5, fused with the C-terminal fragment of YFP) (other)
chain: MGKAARWFRNMWGGGRKEQKGEAPASGGKRWSFGKSSRDSAEAAAAAAAAAAEASGGNAAIARAAEAAWLRSVYADTEREQSKHAIAVAAATAAAADAAVAAAQAAVAVVRLTSKGRSAPVLAATVAGDTRSLAAAAVRIQTAFRGFLAKKALRALKALVKLQALVRGYLVRRQAAATLQSMQALVRAQATVRAHRSGAGAAANLPHLHHAPFWPRRSLQERCAGDDTRSEHGVAAYSRRLSASIESSSYGYDRSPKIVEVDTGRPKSRSSSSRRASSPLLLDAAGCASGGEDWCANSMSSPLPCYLPGGAPPPRIAVPTSRHFPDYDWCALEKARPATAQSTPRYAHAPPTPTKSVCGGGGGGGIHSSPLNCPNYMSNTQSFEAKVRSQSAPKQRPETGGAGAGGGRKRVPLSEVVVVESRASLSGVGMQRSCNRVQEAFNFKTAVVGRLDRSSESGENDRHAFLQRRW
notes: BiFC construct in pGWB414, transiently expressed inside Nicotiana benthamiana leaf cells (not on the cell surface); not shown: C-terminal fragment of YFP (cYFP)
